In US20220144940A1:

Experiments:
human ILT7 (human) [1] = target: human ILT7 (human) (UniProt P59901); assay: FACS dot plot of human PBMCs, CD304-PE against AF647-labeled antibody (lower left panel); upper left quadrant (CD304+ AF647-) 0.532
human ILT7 (human) [2] = target: human ILT7 (human) (UniProt P59901); assay: flow cytometry of human PBMCs with APC-labeled antibody at 2.5 µg/ml, histogram gated on BDCA-4+ pDCs (lower row)
human ILT7 (human) [3] = target: human ILT7 (human) (UniProt P59901); assay: flow cytometry dot plot of human PBMCs, BDCA-4 against APC-labeled antibody (upper row); upper left quadrant (BDCA-4+ APC-) 0.36

Chain of human ILT7 (human) (P59901 24-499): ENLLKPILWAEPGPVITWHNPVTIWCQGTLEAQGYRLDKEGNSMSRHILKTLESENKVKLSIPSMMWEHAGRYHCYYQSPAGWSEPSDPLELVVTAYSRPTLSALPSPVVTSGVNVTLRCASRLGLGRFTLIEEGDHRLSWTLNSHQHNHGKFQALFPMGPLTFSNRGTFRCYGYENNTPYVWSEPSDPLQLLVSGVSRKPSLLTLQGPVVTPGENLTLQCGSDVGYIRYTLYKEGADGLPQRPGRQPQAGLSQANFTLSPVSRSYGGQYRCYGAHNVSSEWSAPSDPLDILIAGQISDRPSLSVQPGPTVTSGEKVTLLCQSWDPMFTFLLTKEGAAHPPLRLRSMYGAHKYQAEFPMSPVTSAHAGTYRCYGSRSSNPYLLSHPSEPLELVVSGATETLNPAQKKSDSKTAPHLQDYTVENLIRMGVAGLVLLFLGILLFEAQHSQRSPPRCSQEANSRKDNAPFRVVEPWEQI

Substance | percent of PBMCs in the CD304+ AF647+ quadrant (upper right) (human ILT7 (human) [1]) [%] | percent of pDCs (BDCA-4+ cells) in the APC-positive gate (human ILT7 (human) [2]) [%] | percent of PBMCs in the BDCA-4+ APC+ quadrant (upper right) (human ILT7 (human) [3]) [%]
afucosylated isotype control R347 (antibody) | 0.0153 | – | –
isotype control R347 (antibody) | – | 0.59 | 0.000963
